Assay results from the supplement of paper PMC5998384.

Experiments:
HeLa Kyoto [1] = assay: thermal stability score vs G1/S (z-score of summed log2 fold changes over temperatures); higher = more thermally stable than in G1/S
HeLa Kyoto [2] = assay: solubility change mitosis vs G1/S (difference of NP-40 vs SDS log2 ratios) (log2 ratio difference); higher = more soluble in mitosis
HeLa Kyoto [3] = assay: solubility in G1/S (NP-40 vs SDS abundance) (log2 ratio); higher = more soluble; conditions: cell cycle stage: G1/S
HeLa Kyoto [4] = assay: melting temperature (median over replicates), in situ; higher = more thermally stable
[5] = cell cycle stage: early G1 (4.5 h after nocodazole release)
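Throughout, for melting temperature (median over replicates), in situ: HeLa Kyoto cells synchronized by double thymidine or nocodazole block, proteins quantified by TMT10plex mass spectrometry, three independent biological replicates.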
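Throughout, for solubility change mitosis vs G1/S (difference of NP-40 vs SDS log2 ratios): synchronized HeLa Kyoto cells (double thymidine block for G1/S, nocodazole release for mitosis), protein amounts in NP-40 versus SDS lysates quantified by mass spectrometry, three biological replicates.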
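Throughout, for solubility in G1/S (NP-40 vs SDS abundance): HeLa Kyoto cells arrested at G1/S by double thymidine block, proteins quantified by TMT10plex mass spectrometry in mild NP-40 versus SDS extracts, three biological replicates.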
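Throughout, for thermal stability score vs G1/S (z-score of summed log2 fold changes over temperatures): synchronized HeLa Kyoto cells, proteins quantified by TMT10plex mass spectrometry, three biological replicates, mitosis taken 0.5 h after nocodazole release, G1/S directly after double thymidine block.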

Row | Sequence | thermal stability score (HeLa Kyoto [1]; [5]) | thermal stability score (HeLa Kyoto [1]; cell cycle stage: mitosis) | solubility change mitosis (log2) (HeLa Kyoto [2]) | solubility in G1/S (log2) (HeLa Kyoto [3]) | melting temperature (HeLa Kyoto [4]; cell cycle stage: G1/S) [°C] | melting temperature (HeLa Kyoto [4]; cell cycle stage: mitosis) [°C]
1 | MGGSASSQLDEGKCAYIRGKTEAAIKNFSPYYSRQYSVAFCNHVRTEVEQQRDLTSQFLKTKPPLAPGTILYEAELSQFSEDIKKWKERYVVVKNDYAVESYENKEAYQRGAAPKCRILPAGGKVLTSEDEYNLLSDRHFPDPLASSEKENTQPFVVLPKEFPVYLWQPFFRHGYFCFHEAADQKRFSALLSDCVRHLNHDYMKQMTFEAQAFLEAVQFFRQEKGHYGSWEMITGDEIQILSNLVMEELLPTLQTDLLPKMKGKKNDRKRTWLGLLEEAYTLVQHQVSEGLSALKEECRALTKGLEGTIRSDMDQIVNSKNYLIGKIKAMVAQPAEKSCLESVQPFLASILEELMGPVSSGFSEVRVLFEKEVNEVSQNFQTTKDSVQLKEHLDRLMNLPLHSVKMEPCYTKVNLLHERLQDLKSRFRFPHIDLVVQRTQNYMQELMENAVFTFEQLLSPHLQGEASKTAVAIEKVKLRVLKQYDYDSSTIRKKIFQEALVQITLPTVQKALASTCKPELQKYEQFIFADHTNMIHVENVYEEILHQILLDETLKVIKEAAILKKHNLFEDNMALPSESVSSLTDLKPPTGSNQASPARRASAILPGVLGSETLSNEVFQESEEEKQPEVPSSLAKGESLSLPGPSPPPDGTEQVIISRVDDPVVNPVATEDTAGLPGTCSSELEFGGTLEDEEPAQEEPEPITASGSLKALRKLLTASVEVPVDSAPVMEEDTNGESHVPQENEEEEEKEPSQAAAIHPDNCEESEVSEREAQPPCPEAHGEELGGFPEVGSPASPPASGGLTEEPLGPMEGELPGEACTLTAHEGRGGKCTEEGDASQQEGCTLGSDPICLSESQVSEEQEEMGGQSSAAQATASVNAEEIKVARIHECQWVVEDAPNPDVLLSHKDDVKEGEGGQESFPELPSEE [FAM129A] | 1.18 | 2.35 | -0.0907 | 0.169 | 50 | 49.7
2 | MGKKGKVGKSRRDKFYHLAKETGYRSRSAFKLIQLNRRFQFLQKARALLDLCAAPGGWLQVAAKFMPVSSLIVGVDLVPIKPLPNVVTLQQDITTERCRQALRKELKTWKVDVVLNDGAPNVGASWVHDAYSQAHLTLMALRLACDFLARGGSFITKVFRSRDYQPLLWIFQQLFRRVQATKPQASRHESAEIFVVCQGFLAPDKVDSKFFDPKFAFKEVEVQAKTVTELVTKKKPKAEGYAEGDLTLYHRTSVTDFLRAANPVDFLSKASEIMVDDEELAQHPATTEDIRVCCQDIRVLGRKELRSLLNWRTKLRRYVAKKLKEQAKALDISLSSGEEDEGDEEDSTAGTTKQPSKEEEEEEEEEQLNQTLAEMKAQEVAELKRKKKKLLREQRKQRERVELKMDLPGVSIADEGETGMFSLSTIRGHQLLEEVTQGDMSAADTFLSDLPRDDIYVSDVEDDGDDTSLDSDLDPEELAGVRGHQGLRDQKRMRLTEVQDDKEEEEEENPLLVPLEEKAVLQEEQANLWFSKGSFAGIEDDADEALEISQAQLLFENRRKGRQQQQKQQLPQTPPSCLKTEIMSPLYQDEAPKGTEASSGTEAATGLEGEEKDGISDSDSSTSSEEEESWEPLRGKKRSRGPKSDDDGFEIVPIEDPAKHRILDPEGLALGAVIASSKKAKRDLIDNSFNRYTFNEDEGELPEWFVQEEKQHRIRQLPVGKKEVEHYRKRWREINARPIKKVAEAKARKKRRMLKRLEQTRKKAEAVVNTVDISEREKVAQLRSLYKKAGLGKEKRHVTYVVAKKGVGRKVRRPAGVRGHFKVVDSRMKKDQRAQQRKEQKKKHKRK [FTSJ3] | 4.05 | 7.76 | 1.11 | -2.41 | 49.7 | 52
3 | MGKSDFLTPKAIANRIKSKGLQKLRWYCQMCQKQCRDENGFKCHCMSESHQRQLLLASENPQQFMDYFSEEFRNDFLELLRRRFGTKRVHNNIVYNEYISHREHIHMNATQWETLTDFTKWLGREGLCKVDETPKGWYIQYIDRDPETIRRQLELEKKKKQDLDDEEKTAKFIEEQVRRGLEGKEQEVPTFTELSRENDEEKVTFNLSKGACSSSGATSSKSSTLGPSALKTIGSSASVKRKESSQSSTQSKEKKKKKSALDEIMEIEEEKKRTARTDYWLQPEIIVKIITKKLGEKYHKKKAIVKEVIDKYTAVVKMIDSGDKLKLDQTHLETVIPAPGKRILVLNGGYRGNEGTLESINEKTFSATIVIETGPLKGRRVEGIQYEDISKLA [KIN] | 0.727 | 1.45 | 0.174 | -0.339 | 51.1 | 49.3
4 | MGLLDLCEEVFGTADLYRVLGVRREASDGEVRRGYHKVSLQVHPDRVGEGDKEDATRRFQILGKVYSVLSDREQRAVYDEQGTVDEDSPVLTQDRDWEAYWRLLFKKISLEDIQAFEKTYKGSEEELADIKQAYLDFKGDMDQIMESVLCVQYTEEPRIRNIIQQAIDAGEVPSYNAFVKESKQKMNARKRRAQEEAKEAEMSRKELGLDEGVDSLKAAIQSRQKDRQKEMDNFLAQMEAKYCKSSKGGGKKSALKKEKK [DNAJC9] | -3.62 | -5.66 | 0.21 | 0.502 | 52 | 51.8
5 | MGLLRGGLPCARAMARLGAVRSHYCALLLAAALAVCAFYYLGSGRETFSSATKRLKEARAGAPAAPSPPALELARGSVAPAPGAKAKSLEGGGAGPVDYHLLMMFTKAEHNAALQAKARVALRSLLRLAKFEAHEVLNLHFVSEEASREVAKGLLRELLPPAAGFKCKVIFHDVAVLTDKLFPIVEAMQKHFSAGLGTYYSDSIFFLSVAMHQIMPKEILQIIQLDLDLKFKTNIRELFEEFDSFLPGAIIGIAREMQPVYRHTFWQFRHENPQTRVGGPPPEGLPGFNSGVMLLNLEAMRQSPLYSRLLEPAQVQQLADKYHFRGHLGDQDFFTMIGMEHPKLFHVLDCTWNRQLCTWWRDHGYSDVFEAYFRCEGHVKIYHGNCNTPIPED [XXYLT1] | -1.07 | -1.02 | -0.0858 | -0.0927 | 54.9 | 54.7
6 | MGLQACLLGLFALILSGKCSYSPEPDQRRTLPPGWVSLGRADPEEELSLTFALRQQNVERLSELVQAVSDPSSPQYGKYLTLENVADLVRPSPLTLHTVQKWLLAAGAQKCHSVITQDFLTCWLSIRQAELLLPGAEFHHYVGGPTETHVVRSPHPYQLPQALAPHVDFVGGLHRFPPTSSLRQRPEPQVTGTVGLHLGVTPSVIRKRYNLTSQDVGSGTSNNSQACAQFLEQYFHDSDLAQFMRLFGGNFAHQASVARVVGQQGRGRAGIEASLDVQYLMSAGANISTWVYSSPGRHEGQEPFLQWLMLLSNESALPHVHTVSYGDDEDSLSSAYIQRVNTELMKAAARGLTLLFASGDSGAGCWSVSGRHQFRPTFPASSPYVTTVGGTSFQEPFLITNEIVDYISGGGFSNVFPRPSYQEEAVTKFLSSSPHLPPSSYFNASGRAYPDVAALSDGYWVVSNRVPIPWVSGTSASTPVFGGILSLINEHRILSGRPPLGFLNPRLYQQHGAGLFDVTRGCHESCLDEEVEGQGFCSGPGWDPVTGWGTPNFPALLKTLLNP [TPP1] | -0.723 | -1.17 | -0.0648 | 0.472 | 53.8 | 53.9
7 | MGLTVSALFSRIFGKKQMRILMVGLDAAGKTTILYKLKLGEIVTTIPTIGFNVETVEYKNICFTVWDVGGQDKIRPLWRHYFQNTQGLIFVVDSNDRERVQESADELQKMLQEDELRDAVLLVFANKQDMPNAMPVSELTDKLGLQHLRSRTWYVQATCATQGTGLYDGLDWLSHELSKR [ARF5] | 1.02 | 1.14 | -0.212 | -0.196 | 55.4 | 55.9
8 | MGMWASLDALWEMPAEKRIFGAVLLFSWTVYLWETFLAQRQRRIYKTTTHVPPELGQIMDSETFEKSRLYQLDKSTFSFWSGLYSETEGTLILLFGGIPYLWRLSGRFCGYAGFGPEYEITQSLVFLLLATLFSALTGLPWSLYNTFVIEEKHGFNQQTLGFFMKDAIKKFVVTQCILLPVSSLLLYIIKIGGDYFFIYAWLFTLVVSLVLVTIYADYIAPLFDKFTPLPEGKLKEEIEVMAKSIDFPLTKVYVVEGSKRSSHSNAYFYGFFKNKRIVLFDTLLEEYSVLNKDIQEDSGMEPRNEEEGNSEEIKAKVKNKKQGCKNEEVLAVLGHELGHWKLGHTVKNIIISQMNSFLCFFLFAVLIGRKELFAAFGFYDSQPTLIGLLIIFQFIFSPYNEVLSFCLTVLSRRFEFQADAFAKKLGKAKDLYSALIKLNKDNLGFPVSDWLFSMWHYSHPPLLERLQALKTMKQH [ZMPSTE24] | -0.261 | -0.906 | -0.171 | -0.147 | 55.2 | 54.4
9 | MGNCCWTQCFGLLRKEAGRLQRVGGGGGSKYFRTCSRGEHLTIEFENLVESDEGESPGSSHRPLTEEEIVDLRERHYDSIAEKQKDLDKKIQKELALQEEKLRLEEEALYAAQREAARAAKQRKLLEQERQRIVQQYHPSNNGEYQSSGPEDDFESCLRNMKSQYEVFRSSRLSSDATVLTPNTESSCDLMTKTKSTSGNDDSTSLDLEWEDEEGMNRMLPMRERSKTEEDILRAALKYSNKKTGSNPTSASDDSNGLEWENDFVSAEMDDNGNSEYSGFVNPVLELSDSGIRHSDTDQQTR [AP1AR] | -0.31 | -1.09 | -0.24 | 0.104 |  | 59.6
10 | MGNGGRSGLQQGKGNVDGVAATPTAASASCQYRCIECNQEAKELYRDYNHGVLKITICKSCQKPVDKYIEYDPVIILINAILCKAQAYRHILFNTQINIHGKLCIFCLLCEAYLRWWQLQDSNQNTAPDDLIRYAKEWDFYRMFAIAALEQTAYFIGIFTFLWVERPMTAKKKPNFILLLKALLLSSYGKLLLIPAVIWEHDYTSVCLKLIKVFVLTSNFQAIRVTLNINRKLSFLAVLSGLLLESIMVYFFQSMEWDVGSDYAIFKSQDF [ARV1] | -0.687 | -0.97 | -0.0477 | -0.481 |  | 49.2
11 | MGNLLKVLTCTDLEQGPNFFLDFENAQPTESEKEIYNQVNVVLKDAEGILEDLQSYRGAGHEIREAIQHPADEKLQEKAWGAVVPLVGKLKKFYEFSQRLEAALRGLLGALTSTPYSPTQHLEREQALAKQFAEILHFTLRFDELKMTNPAIQNDFSYYRRTLSRMRINNVPAEGENEVNNELANRMSLFYAEATPMLKTLSDATTKFVSENKNLPIENTTDCLSTMASVCRVMLETPEYRSRFTNEETVSFCLRVMVGVIILYDHVHPVGAFAKTSKIDMKGCIKVLKDQPPNSVEGLLNALRYTTKHLNDETTSKQIKSMLQ [FAM49B] | 1.27 | 0.808 | 0.0154 | 0.31 | 54.2 | 54.2
